Substitutions are numbered along the chain they refer to. Where “and” joins values, the source holds several entries; their conditions need not be identical. Identical values can stand only once.
B1: 35 EK-DART (bispecific antibody)
chain 1: QSVLTQPPSVSAAPGQKVTISCSGSSSNIGNNYVSWYQQLPGTAPKLLIYDNNKRPSGIPDRFSGSKSGTSATLGITGLQTGDEADYYCGTWDSSLSAVVFGGGTKLTVLGGGSGGGGEVQLVESGGGLVQPGGSLRLSCAASGFTFNTYAMNWVRQAPGKGLEWVARIRSKYNNYATYYADSVKDRFTISRDDSKNSLYLQMNSLKTEDTAVYYCVRHGNFGNSYVSWFAYWGQGTLVTVSSGGCGGGKVAALKEKVAALKEKVAALKEKVAALKE
chain 2: QAVVTQEPSLTVSPGGTVTLTCRSSTGAVTTSNYANWVQQKPGQAPRGLIGGTNKRAPWTPARFSGSLLGGKAALTITGAQAEDEADYYCALWYSNLWVFGGGTKLTVLGGGGSGGGGEVQLVQSGAEVKKPGASVKVSCKASGYTFTSYGISWVRQAPGQGLEWMGWISAYNGNTNYAQKLQGRVTMTTDTSTSTAYMELRSLRSDDTAVYYCATIDTASAFDIWGQGTMVTVSSGGCGGGEVAALEKEVAALEKEVAALEKEVAALEK
B2: 154 EK-DART (bispecific antibody)
chain 1: B1 chain 1 with A98S, V99Y, G103T, L107V
chain 2: B1 chain 2 with S221T
B3: 165 EK-DART (bispecific antibody)
chain 1: B1 chain 1 with T81A, V99Y, G103T, L107V
chain 2: B1 chain 2 with S221N
B4: 180 EK-DART (bispecific antibody)
chain 1: B1 chain 1 with L4V, V99Y, G103T, L107V
chain 2: B1 chain 2 with S221N
B5: 178 EK-DART (bispecific antibody)
chain 1: B1 chain 1
chain 2: B1 chain 2 with S221N
B6: 179 EK-DART (bispecific antibody)
chain 1: B1 chain 1 with S26R, N52S, A98S, V99W
chain 2: B1 chain 2 with S221N
B7: 153 EK-DART (bispecific antibody)
chain 1: B1 chain 1 with A98G
chain 2: B1 chain 2 with S221N, D224G
B8: 177 EK-DART (bispecific antibody)
chain 1: B1 chain 1 with V99Y, G103T, L107V
chain 2: B1 chain 2 with S221N
B9: 153 VF-DART (bispecific antibody, not shown: small tags and cut ends)
chain 1: QSVLTQPPSVSAAPGQKVTISCSGSSSNIGNNYVSWYQQLPGTAPKLLIYDNNKRPSGIPDRFSGSKSGTSATLGITGLQTGDEADYYCGTWDSSLSGVVFGGGTKLTVLGGGSGGGGEVQLVESGGGLVQPGGSLRLSCAASGFTFSTYAMNWVRQAPGKGLEWVGRIRSKYNNYATYYADSVKGRFTISRDDSKNSLYLQMNSLKTEDTAVYYCVRHGNFGNSYVSWFAYWGQGTLVTVSS
chain 2: QAVVTQEPSLTVSPGGTVTLTCRSSTGAVTTSNYANWVQQKPGQAPRGLIGGTNKRAPWTPARFSGSLLGGKAALTITGAQAEDEADYYCALWYSNLWVFGGGTKLTVLGGGGSGGGGEVQLVQSGAEVKKPGASVKVSCKASGYTFTSYGISWVRQAPGQGLEWMGWISAYNGNTNYAQKLQGRVTMTTDTSTSTAYMELRSLRSDDTAVYYCATIDTANAFGIWGQGTMVTVSS
modifications: One interchain disulfide between the Linker 2 cysteines; these linkers are left out of the letters.
B10: 154 VF-DART (bispecific antibody, not shown: small tags and cut ends)
chain 1: B9 chain 1 with G98S, V99Y, G103T, L107V
chain 2: B9 chain 2 with N221T, G224D
B11: 20 EK-DART (bispecific antibody)
chain 1: AIQMTQSPSSLSASVGDRVTITCRASQSIGKYLNWYQQIPGKAPKLLIYTASTLQTGVPSRFSGSGSGTDFTLTIVSLQPEDFATYYCQQSFNTPRTFGQGTKVEIKGGGSGGGGEVQLVESGGGLVQPGGSLRLSCAASGFTFNTYAMNWVRQAPGKGLEWVARIRSKYNNYATYYADSVKDRFTISRDDSKNSLYLQMNSLKTEDTAVYYCVRHGNFGNSYVSWFAYWGQGTLVTVSSGGCGGGKVAALKEKVAALKEKVAALKEKVAALKE
chain 2: QAVVTQEPSLTVSPGGTVTLTCRSSTGAVTTSNYANWVQQKPGQAPRGLIGGTNKRAPWTPARFSGSLLGGKAALTITGAQAEDEADYYCALWYSNLWVFGGGTKLTVLGGGGSGGGGEVQLVQSGAEVKKPGASVKVSCKASGYTFTGYYMHWVRQAPGQGLEWMGRINPNSGGTNYAQKFQGRVTMTRDTSISTAYMELSRLRSDDTAVYYCAKGSGSGAFDIWGQGTMVTVSSGGCGGGEVAALEKEVAALEKEVAALEKEVAALEK
B12: 33 EK-DART (bispecific antibody)
chain 1: B1 chain 1 with V99Y, G103T, L107V
chain 2: B1 chain 2 with E119Q, V120M, T216L, D218G, T219S, A220G, S221V
B13: 34 EK-DART (bispecific antibody)
chain 1: B1 chain 1 with L4V, V99W
chain 2: B1 chain 2

Molecular target: human soluble CD3 (human) (UniProt P07766)
Sequence (P07766 23-126, chain 1 of 2): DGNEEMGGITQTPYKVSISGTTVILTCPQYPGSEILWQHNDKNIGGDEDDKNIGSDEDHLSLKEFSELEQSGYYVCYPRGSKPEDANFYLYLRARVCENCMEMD
Sequence (P04234 22-105, chain 2 of 2, further chain): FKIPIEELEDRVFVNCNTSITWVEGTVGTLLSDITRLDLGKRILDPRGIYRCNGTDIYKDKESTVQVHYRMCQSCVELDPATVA
Assay: SPR

| Kd [nM] | Binder |
| --- | --- |
| 17.1 | B1 |

Molecular target: human soluble CD3 (human) (UniProt P07766)
Assay: SPR Biacore

| Kd [nM] | koff [s⁻¹] | kon [M⁻¹ s⁻¹] | Binder |
| --- | --- | --- | --- |
| 17.1 | 0.00768 | 456000 | B2 |
| 14.9 | 0.00417 | 278000 | B3 |
| 23.6 | 0.00447 | 189000 | B1 |
| 15.9 | 0.0111 | 706000 | B4 |
| 23.1 | 0.00526 | 230000 | B5 |
| 25.8 | 0.00641 | 306000 | B6 |
| 15.7 | 0.00631 | 403000 | B7 |
| 19.9 | 0.00443 | 253000 | B8 |

Molecular target: human soluble CD3 (human) (UniProt P07766)
Assay: SPR Biacore pH 7.4

| Kd | koff | kon | t½ | Binder |
| --- | --- | --- | --- | --- |
| 22.3 nM and 24 nM | 0.00618 s⁻¹ and 0.0068 s⁻¹ | 277000 M⁻¹ s⁻¹ and 283000 M⁻¹ s⁻¹ | 1.76 min and 1.6 min | B7 |
| 4.65 nM and 4.77 nM | 0.00525 s⁻¹ and 0.00555 s⁻¹ | 1.13e+06 M⁻¹ s⁻¹ and 1.16e+06 M⁻¹ s⁻¹ | 2.07 min and 1.96 min | B9 |

Molecular target: human soluble CD3 (human) (UniProt P07766)
Assay: SPR Biacore affinity

| Kd [nM] | Binder |
| --- | --- |
| 4.71 | B9 |
| 3.69 | B10 |

Molecular target: human soluble CD3 (human) (UniProt P07766)
Assay: SPR Biacore pH 7.4, average

| Kd [nM] | Binder |
| --- | --- |
| 23.1 | B7 |
| 4.71 | B9 |

Molecular target: human soluble CD3 (human) (UniProt P07766)
Assay: SPR Biacore 3000, antigen immobilised

| Kd [nM] | koff [s⁻¹] | kon [M⁻¹ s⁻¹] | Binder |
| --- | --- | --- | --- |
| 5.19 | 0.00609 | 979000 | B11 |
| 17.7 | 0.00403 | 228000 | B12 |
| 23.6 | 0.00447 | 189000 | B1 |
| 22.8 | 0.00445 | 195000 | B13 |

Source: patent US20160002357A1
